We go through twelve molecules from patent publication US20200239573A1 (CRESCENDO BIOLOGICS, published 2020).

Numbering of substitutions follows the chain as printed.

Assay [1] addresses T1, recombinant human PD-1 Fc chimera (human, UniProt Q15116 25-167).
T1 construct: Bought protein; also called human PD-1-huFc; huPD-1-Fc; not shown: human Fc
The assay can be described thus: HTRF inhibition; biotinylated PD-L2-Fc vs Eu-cryptate PD-1-Fc.

In assay [2] the target is human PD-1 on primary human CD4+ T cells (human, UniProt Q15116 21-288). The assay can be described thus: flow cytometry on PHA-stimulated human CD4+ T cells (live cell gate). On the procedure: Binding of monovalent single domain antibodies and multivalent binding agents to T cells was measured using flow cytometry. […] T-cells were stimulated with 2.5 μg/ml PHA for 2-4 days in RPMI media supplemented with 10% FBS, 2 mM Glutamine, 1× Pen/Strep. Cells were transferred into 96 well plates (75000 per well), blocked for 10 mins with PBS/1% BSA, then incubated with serially diluted VH in staining buffer (PBS/1% BSA) for 1 hour at 4° C. Cells were washed with staining buffer by centrifugation then incubated with 10 μg/ml biotinylated Anti His antibody for 40 mins at 4° C. Cells were washed again then stained with Streptavidin Alexa Fluor-488 (10 μg/ml) and 1:5000 diluted Live Dead near IR stain (Molecular Probes cat no. L10119) for 30 mins at 4° C. After further washing cells were fixed and fluorescence measured by flow cytometry.
Chain of human PD-1 on primary human CD4+ T cells (Q15116 21-288): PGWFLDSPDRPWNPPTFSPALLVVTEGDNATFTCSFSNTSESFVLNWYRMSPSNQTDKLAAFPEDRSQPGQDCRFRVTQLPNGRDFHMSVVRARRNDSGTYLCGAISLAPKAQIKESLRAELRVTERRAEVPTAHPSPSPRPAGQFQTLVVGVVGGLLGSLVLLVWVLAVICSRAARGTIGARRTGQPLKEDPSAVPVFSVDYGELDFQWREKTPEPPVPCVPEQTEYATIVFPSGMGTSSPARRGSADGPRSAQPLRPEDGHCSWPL
(In general: Flow cytometry measures light scatter and fluorescence of single cells or particles in a stream.)

The target of assay [3] is T1, recombinant human PD-1 Fc chimera. As to the kind of experiment: HTRF inhibition; strep-tagged PD-L1 vs PD-1-Fc. On the procedure:
All samples and reagents were prepared in HTRF assay buffer containing PBS, 0.1% (w/v) BSA and 0.4M Potassium Fluoride. […] Total binding controls containing periplasmic extract sample buffer and non-specific binding controls containing excess untagged competitor were set up on each plate for data normalisation. Time-resolved fluorescent emission at 620 nm and 665 nm was measured following excitation at 337 nm on the BMG PHERAstar plate reader. Data was expressed as a % of the total binding control (% control) after subtraction of the background signal determined from the non-specific binding control wells.
On the technique in general: In TR-FRET formats the signal depends on donor and acceptor labels being close together.

The target of assay [4] is T2, human PD-1 expressed on cells (CHO human PD-1 cells) (human, UniProt Q15116 21-288).
T2 construct: also called CHO TREX human PD-1 cell line; CHO PD-1
T2 sequence (Q15116 21-288): as above
The assay can be described thus: FMAT inhibition; 200 pM PD-L2 on CHO human PD-1 cells. On the procedure:
(§1) All reagents and serially diluted VH were prepared in FMAT assay buffer. […] Plates were incubated for 2 hours at room temperature then fluorescence measured in the FL2 (502 nm-537 nm) and FL5 (677-800 nm) channels on the Mirrorball plate reader (TTP) following excitation at 488 nm and 640 nm. Data was expressed as a % of the total binding control (i.e. % control) after subtraction of the background signal determined from the non-specific binding control wells.

Assay [5] deals with T2, human PD-1 expressed on cells (CHO …). The assay can be described thus: cell-based or functional assay.
Assay [6] shares this target. The assay can be described thus: FMAT inhibition; 100 pM PD-L1-Fc on CHO human PD-1 cells. On the procedure: as §1
Assay [7] has the same target. As to the kind of experiment: FMAT 1.57 epitope competition assay on CHO human PD-1 cells; competitor: 1.57-Strep tagged protein; 0 days in mouse serum. The protocol:
(§2) For the epitope competition assay reagents were prepared in FMAT assay buffer. […] Plates were incubated for a minimum of 1.5 hours at room temperature then fluorescence measured in the FL2 (502 nm-537 nm) and FL5 (677-800 nm) channels on the Mirrorball plate reader (TTP) following excitation at 488 nm and 640 nm. Data was expressed as a % of the total binding control (i.e. % control) after subtraction of the background signal determined from the non-specific binding control wells.
(§3) Serum stability of VH and multivalent VH constructs was assessed by measurement of their activity following incubation for 0, 1, 4 or 7 days in mouse serum (Sigma M5905).

The target is the same in assay [8]. The assay can be described thus: FMAT 1.57 epitope competition assay on CHO human PD-1 cells; competitor: 1.57-Strep tagged protein; 1 day in mouse serum. On the procedure:
as §2, §3

Assay [9] addresses T1, recombinant human PD-1 Fc chimera. The assay can be described thus: SPR Biacore T200, PD-1-Fc captured on protein G, single cycle kinetics. The protocol: Single cycle kinetics assays were used to study the interaction between human Fc tagged human PD-1 with Humabody® on a Biacore T200 instrument (GE Healthcare). Protein G was amine coupled to two flow cells of a CM-5 chip. Human Fc tagged recombinant human PD-1 was captured onto one of the flow cells. The other was used as the reference flow cell. A five point, three-fold dilution series of each Humabody® was made with a top concentration within the range of 50 to 150 nM. The binding kinetics were followed by flowing the Humabody® over the chip surface in HBS EP+ buffer at a flow rate of 30 μl/min. The contact time for each of the association steps was 180 seconds and the dissociation step was 3600 seconds. The data was fitted to a 1:1 binding model after double reference subtraction using the Biacore T200 Evaluation software.

Assay [10] has as its target T2, human PD-1 expressed on cells (CHO …). As to the kind of experiment: cell-based or functional assay. This is another data set of the same source.
The target of assay [11] is T3, Strep tagged recombinant human PD-1 (human, UniProt Q15116 25-170, limits assumed).
T3 construct: the whole entry is named; also called strep tagged human PD-1; not shown: Strep tag
T3 sequence (Q15116 25-170 limits assumed): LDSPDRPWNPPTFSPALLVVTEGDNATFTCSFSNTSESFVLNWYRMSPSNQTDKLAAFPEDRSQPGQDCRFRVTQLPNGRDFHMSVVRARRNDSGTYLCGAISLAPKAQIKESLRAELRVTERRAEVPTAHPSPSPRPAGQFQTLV
As to the kind of experiment: SPR Biacore T200, strep-tagged PD-1 amine-coupled, single cycle kinetics. On the procedure: Single cycle kinetics assays were used to study the interaction between human PD-1 with Humabody® on a Biacore T200 instrument (GE Healthcare). Strep tagged recombinant human PD-1 was amine coupled to one flow cell of a CM-5 chip to create a low density surface (14 RU) using standard Biacore reagents. For the reference flow cell, a blank immobilisation was carried out. A five-point, three-fold dilution series of each Humabody® was made with a top concentration of 25 nM. The binding kinetics were followed by flowing the Humabody® over the chip surface in HBS EP+ buffer at a flow rate of 30 μl/min. The contact time for each of the association steps was 180 seconds and the dissociation step was 3300 seconds. The data was fitted to a 1:1 binding model after double reference subtraction using the Biacore T200 Evaluation software.
In general terms: SPR reads the build-up and loss of mass on a sensor chip optically.

The target of assay [12] is T2, human PD-1 expressed on cells (CHO …). The assay can be described thus: cell-based or functional assay. This is another data set of the same source.
Assay [13] addresses human PD-1 expressed on cells (CHO human PD-1 cells) (human) (UniProt Q15116). As to the kind of experiment: FMAT inhibition assay on CHO human PD-1 cells; blocked ligand: human Fc tagged human PD-L1.

T1 sequence (Q15116 25-167 limits assumed, change not shown): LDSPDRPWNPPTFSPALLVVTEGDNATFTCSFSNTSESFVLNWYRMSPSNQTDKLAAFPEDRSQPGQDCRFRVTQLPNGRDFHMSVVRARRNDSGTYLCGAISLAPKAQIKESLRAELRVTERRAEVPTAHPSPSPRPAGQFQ
Chain of human PD-1 expressed on cells (CHO human PD-1 cells) (human) (Q15116 21-288): as the sequence (Q15116 21-288) above

B1: Humabody® 1.2 (VHH)
VHH: EVQLLESGGGLVKPGGSLRLSCAASGFTFSDYTMTWMRQAPGKGLEWVSYISTGGSIKYYTDSVKGRFTISRDNAKNSLYLQMNSLRADDTAVYYCAREAPLRLGESPHDAFDIWGQGTMVTVSS
notes: human VH single domain antibody
Consider B1, for which the results for the concentration for half-maximal inhibition (IC50) in assay [1] and in [3] were 39 nM and 13 nM, respectively. Further, the “EC50 (read off the curve)” value in assay [2] was approximately 2 nM.

B2: Humabody® 1.65 (VHH)
VHH: B1 VHH with E1Q, L5V, Y32S, T33S, T53S, S56G, I57V, Y59F, T61A, W115S
notes: as for B1
On to B2, for which the IC50 is 8.5 nM in assay [4] and 5.8 nM in assay [6]. Also, the “Reporter Assay EC50” value in assay [5] is 11 nM.

B3: Humabody® 1.63 (VHH)
VHH: B1 VHH with L5V, Y32S, T33S, T53S, S56G, I57V, Y59F, W115S
notes: as for B1
B3: the IC50 was found to be 6.9 nM in assay [4] and 4.5 nM in assay [6]. The “Reporter Assay EC50” value in assay [5] was 12 nM.

B4: Humabody® 1.13 (VHH)
VHH: B1 VHH with S56T
notes: as for B1
For the molecule B4, the results for the concentration for half-maximal inhibition (IC50) in assay [1] and in [3] were 10 nM and 17 nM, respectively.

B5: Humabody® 1.62 (VHH)
VHH: B1 VHH with E1Q, L5V, Y32S, T33S, T53S, S56A, I57V, Y59F, W115S
notes: as for B1
In the case of B5, the IC50 in [4] was found to be 10 nM; in [6], 5.7 nM. Moreover, in assay [5], the “Reporter Assay EC50” value is 14 nM.

B6: Humabody® 1.9 (VHH)
VHH: B1 VHH with E1Q, L5V, S30G, S56T, N84D
notes: as for B1
Turning to B6, the IC50 in [1] came out at 7.5 nM; in assay [3], 0.913 nM.

B7: Humabody® 1.4 (VHH)
VHH: B1 VHH with E1Q, L5V, T33Y, T35I, T53G, S56T, I57T, S107T
notes: as for B1
With B7, the IC50 in assay [1] turned out to be 14 nM; in assay [3], 3.13 nM.

B8: Humabody® 1.5 (VHH)
VHH: B1 VHH with L5V, S56N, I57T
notes: as for B1
Consider B8, for which the IC50 in assay [1] stood at 22 nM; in assay [3] it was 2.66 nM.

B9: Humabody® 1.64 (VHH)
VHH: B1 VHH with L5V, Y32S, T33S, T53S, S56G, I57V, Y59F, T61A, W115S
notes: as for B1
For the molecule B9, the “IC50 (read off the curve)” value in assay [7] was approximately 0.9 nM; in [8] it was approximately 0.8 nM. The IC50 in [4] came out at 9 nM; in assay [6] it was 5.8 nM. Further, the “Reporter Assay EC50” value in [5] came out at 25 nM.

B10: 1.57-9GS-1.57 (other)
chain: QVQLVESGGGLVKPGGSLRLSCAASGFTFSDNSMTWMRQAPGKGLEWVSYISSGGGVIFYADSVKGRFTISRDNAKNSLYLQMNSLRADDTAVYYCAREAPLRLGESPHDAFDISGQGTMVTVSSGGGGSGGGGSGGGGSGGGGSGGGGSGGGGSGGGGSGGGGSGGGGSQVQLVESGGGLVKPGGSLRLSCAASGFTFSDNSMTWMRQAPGKGLEWVSYISSGGGVIFYADSVKGRFTISRDNAKNSLYLQMNSLRADDTAVYYCAREAPLRLGESPHDAFDISGQGTMVTVSS
notes: bivalent construct of two VH domains in one chain
For B10, in assay [9], the “dissociation rate constant (koff)” value is 8.4e-05 s⁻¹, the koff amounted to 1.14e-07 s⁻¹ and the kon is 1.36e+06 M⁻¹ s⁻¹. Also, the “EC50 (M), reporter assay” value in [10] was 1e-09 M. Besides, in assay [11], the equilibrium dissociation constant (Kd) is 0.0222 nM, the koff was found to be 1.4e-05 s⁻¹ and the kon is 630000 M⁻¹ s⁻¹. Also, the “EC50 (M), human PD-1 reporter gene assay” value in assay [12] worked out at 1e-09 M.

B11: 1.57-6GS-1.57 (other)
chain: QVQLVESGGGLVKPGGSLRLSCAASGFTFSDNSMTWMRQAPGKGLEWVSYISSGGGVIFYADSVKGRFTISRDNAKNSLYLQMNSLRADDTAVYYCAREAPLRLGESPHDAFDISGQGTMVTVSSGGGGSGGGGSGGGGSGGGGSGGGGSGGGGSQVQLVESGGGLVKPGGSLRLSCAASGFTFSDNSMTWMRQAPGKGLEWVSYISSGGGVIFYADSVKGRFTISRDNAKNSLYLQMNSLRADDTAVYYCAREAPLRLGESPHDAFDISGQGTMVTVSS
notes: as for B10
On to B11, for which the “EC50 (M), reporter assay” value in assay [10] came out at 8.4e-10 M. Moreover, in assay [11], the Kd worked out at 0.0171 nM, the koff worked out at 1.32e-05 s⁻¹ and the kon came to 773000 M⁻¹ s⁻¹. Moreover, the “EC50 (read off the curve)” value in assay [2] was approximately 0.2 nM. The “EC50 (M), human PD-1 reporter gene assay” value in assay [12] worked out at 8.4e-10 M.

B12: 1.57-1.57 (protein, part only; not given: Linker of unstated length, part only)
VH-linker-VH, part: QVQLVESGGGLVKPGGSLRLSCAASGFTFSDNSMTWMRQAPGKGLEWVSYISSGGGVIFYADSVKGRFTISRDNAKNSLYLQMNSLRADDTAVYYCAREAPLRLGESPHDAFDISGQGTMVTVSSQVQLVESGGGLVKPGGSLRLSCAASGFTFSDNSMTWMRQAPGKGLEWVSYISSGGGVIFYADSVKGRFTISRDNAKNSLYLQMNSLRADDTAVYYCAREAPLRLGESPHDAFDISGQGTMVTVSS
Turning to B12, the IC50 (read off the curve) in assay [13] is 0.9 nM.

Broadly, the IC50 is the midpoint of a concentration-inhibition curve. Broadly, the EC50 (read off the curve) is the concentration giving half of the maximal effect. A low value points to greater potency. Usually koff stands for the first-order rate constant of dissociation. What is called kon is the rate constant with which the complex forms. As usually defined, the Kd is the equilibrium constant for the complex coming apart.
